Test results taken from PMC7688132, “Preparation and characterization of monoclonal antibodies recognizing two CD4 isotypes of Microminipigs” (PLoS ONE, 2020).

How the values were obtained:
[1] = target: T1, swine (Microminipig) CD4.B expressed on transfected HEK293 cells (Sus scrofa, Microminipig, allele CD4.B, UniProt A0A0M4UHP2, strain); test: flow cytometry on cells; HEK293 transfected with CD4.A or CD4.B (mVenus co-expressed) stained with hybridoma clone supernatant, then anti-mouse IgG-APC; conditions: partners not purified
T1 construct: CD4 allele CD4.B of the Microminipig; five replacements between the alleles are printed (T61I, G65R, G66S, G68R, T73K); also called CD4.B transfectant; source: HEK293, transfected (S/MAR episomal vector, mVenus co-expressed), on cells

[2] = target: T2, swine (Microminipig) CD4.A expressed on transfected HEK293 cells (Sus scrofa, Microminipig, allele CD4.A, UniProt A0A0M3VH80, strain); test: as above; conditions: partners not purified
T2 construct: CD4 allele CD4.A of the Microminipig; also called CD4.A transfectant; source: HEK293, transfected (S/MAR episomal vector, mVenus co-expressed), on cells

[3] = target: T3, CD4.B, endogenous in CD4.B (+/+) Microminipig cells (Sus scrofa, Microminipig, allele CD4.B …, UniProt A0A0M4UHP2, strain); test: flow cytometry on cells; CD4.A (+/+) and CD4.B (+/+) swine PBMCs stained with the purified mAb and anti-mouse IgG-APC (b1D7) or anti-mouse IgG2a-FITC (x1E10); lymphocyte gate; isotype control; conditions: one partner purified
T3 construct: CD4 allele CD4.B of the Microminipig, as in animals genotyped CD4.B (+/+) by PCR-RFLP; allele mRNA LC064060; also called CD4.B (+/+) swine PBMCs; CD4.B (+/+) spleen; source: endogenous, CD4.B (+/+) Microminipig PBMCs and spleen tissue sections

[4] = target: T4, CD4.A, endogenous in CD4.A (+/+) Microminipig cells (Sus scrofa, Microminipig, allele CD4.A …, UniProt A0A0M3VH80, strain); test: as above; conditions: one partner purified
T4 construct: CD4 allele CD4.A of the Microminipig, as in animals genotyped CD4.A (+/+) by PCR-RFLP; allele mRNA LC064059; also called CD4.A (+/+) swine PBMCs; CD4.A (+/+) spleen; source: endogenous, CD4.A (+/+) Microminipig PBMCs and spleen tissue sections

[5] = target: T1, swine (Microminipig) CD4.B expressed on …; test: flow cytometry on cells; HEK293 transfected with CD4.A or CD4.B stained with biotinylated x1E10 and streptavidin PE-Cy7; conditions: one partner purified
[6] = target: T2, swine (Microminipig) CD4.A expressed on …; test: as above; conditions: one partner purified

Measured: binding result

B1: anti-swine CD4.AB mAb x1E10 (antibody, V domains shown)
VH: DVQLQESGPGLVKPSQSLSLTCTVTGYSIISDYAWNWIRQFPGNKMEWMGYILYSGTTNYNPSLKSRISITRDTSKNQFFLQLNSVTTEDTATYYCARRTYYDYDYYGMDYWGQGTSVTVSS
VL: DVLMTQIPLSLPVSLGDQASISCRSSQTIVHSLGNTYLEWYLQKPGQSPKLLIYKVSNRFSGVPDRFIGSGSGTDFTLKITRVEAEDLGVYYCFQGSHVPWTFGGGTKLEIK
notes: IgG2a kappa; also called x1E10 (1C3-1E8); anti-CD4AB mAb; source: mouse hybridoma (BALB/c splenocytes fused with P3-X63-Ag8-U1), clone supernatant; purified mAb
binds: [1] | [2] | [3] | [4]

B2: biotinylated x1E10 mAb (antibody, V domains shown)
VH: DVQLQESGPGLVKPSQSLSLTCTVTGYSIISDYAWNWIRQFPGNKMEWMGYILYSGTTNYNPSLKSRISITRDTSKNQFFLQLNSVTTEDTATYYCARRTYYDYDYYGMDYWGQGTSVTVSS
VL: DVLMTQIPLSLPVSLGDQASISCRSSQTIVHSLGNTYLEWYLQKPGQSPKLLIYKVSNRFSGVPDRFIGSGSGTDFTLKITRVEAEDLGVYYCFQGSHVPWTFGGGTKLEIK
notes: as the heavy chain of m2; as the light chain of m2; IgG2a kappa; same antibody as m2 with a biotin label; also called x1E10 labeled with biotin; source: mouse hybridoma x1E10; biotinylated with Biotin Labeling Kit (Cosmo Bio)
binds: [5] | [6]
